The record followed here is the Human Domainome abundance scans (Beltran et al. 2025).

± gives the uncertainty stated by the source.

The chains are these.
B1: Peroxisome proliferator-activated receptor delta, residues 71 to 145; numbered along this chain, Q03181 (parent)
chain: NMECRVCGDKASGFHYGVHACEGCKGFFRRTIRMKLEYEKCERSCKIQKKNRNKCQYCRFQKCLALGMSHNAIRF

In the data set the parent is B1. Nature of the data set: abundance fitness (aPCA) (normalised: wild type 0, dead -1); higher = more abundant; growth selection in yeast, the domain comes from the species named. The note with it: Homo sapiens.
With G17E, the abundance fitness was -0.27 ± 0.061.
Next, R52M: -0.078 ± 0.056; R52W: -0.286 ± 0.056.
With R52N, the abundance fitness was -0.084 ± 0.09.
For the variant R52E, the abundance fitness was -0.037 ± 0.042.
For the variant R52L, the abundance fitness was -0.087 ± 0.042.
On to R52C, for which the abundance fitness is -0.241 ± 0.076.
Regarding C4T, the abundance fitness was -0.962 ± 0.15.
Regarding C4W, the abundance fitness is -0.747 ± 0.13.
Turning to C4Y, the abundance fitness was -0.693 ± 0.14.
In the case of R30M it was -0.176 ± 0.072; in that of R30E, 0.074 ± 0.045.
R30G: the abundance fitness is -0.335 ± 0.043.
Regarding I73P, the abundance fitness worked out at 0.215 ± 0.044.
Take I73K: the abundance fitness was -0.05 ± 0.062.
For R5E, the abundance fitness was found to be 0.105 ± 0.045.
Consider R5Q, for which the abundance fitness came to 0.113 ± 0.047.
As for R5F, the abundance fitness is -0.326 ± 0.091.
On to R5P, for which the abundance fitness is -0.376 ± 0.055.
On to R5I, for which the abundance fitness was -0.176 ± 0.067.
As to R5G, the abundance fitness was -0.045 ± 0.031.
For the variant F75T, the abundance fitness is 0.171 ± 0.069.
On to F75M, for which the abundance fitness is -0.192 ± 0.12.
For the variant F75Y, the abundance fitness was 0.026 ± 0.072.
Take F75P: the abundance fitness was 0.152 ± 0.057.
F75D: the abundance fitness was 0.285 ± 0.09.
Turning to K10S, the abundance fitness is -0.106 ± 0.038.
In the case of K49W it was 0.006 ± 0.16.
With K49A, the abundance fitness is 0 ± 0.15.
Take K49V: the abundance fitness came out at 0.066 ± 0.12.
Consider E3H, for which the abundance fitness was -0.027 ± 0.077.
On to E3V, for which the abundance fitness was -0.178 ± 0.045.
E3P: the abundance fitness is -0.353 ± 0.058.
For the variant E3T, the abundance fitness is -0.102 ± 0.047.
Regarding V18L, the abundance fitness is -0.258 ± 0.044.
Next, V18A: -0.104 ± 0.044.
In the case of V18F it was -0.527 ± 0.16; in that of V18R, -0.671 ± 0.067.
Next, V18W: -0.721 ± 0.11.
As to E42I, the abundance fitness was -0.304 ± 0.089.
For the variant E42Q, the abundance fitness was -0.104 ± 0.049.
On to V6I, for which the abundance fitness is 0.059 ± 0.069.
Consider V6R, for which the abundance fitness was -0.839 ± 0.072.
As for V6L, the abundance fitness is -0.614 ± 0.067.
Next, V6M: -0.674 ± 0.12; V6C: -0.873 ± 0.19; V6T: -1.18 ± 0.19.
In the case of V6A it was -0.619 ± 0.07; in that of Q56Y, -0.116 ± 0.076; in that of Q56N, -0.145 ± 0.084.
On to Q56E, for which the abundance fitness came out at 0.077 ± 0.042.
Regarding Q56D, the abundance fitness was 0.189 ± 0.052.
With Q56M, the abundance fitness is -0.066 ± 0.062.
For the variant Q56P, the abundance fitness is -0.025 ± 0.046.
Regarding Q56L, the abundance fitness was -0.031 ± 0.039.
In the case of Q56R it was -0.227 ± 0.037; in that of S44D, 0.055 ± 0.056.
On to M68R, for which the abundance fitness was -0.698 ± 0.065.
For M68D, the abundance fitness is -0.696 ± 0.16.
Next, M68F: -0.529 ± 0.11; M68G: -0.822 ± 0.081.
For M68E, the abundance fitness is -0.794 ± 0.12.
As for K46V, the abundance fitness stood at 0.023 ± 0.032.
In the case of K46S it was 0.006 ± 0.038; in that of K46F, 0.015 ± 0.052; in that of K46D, 0.142 ± 0.04.
Next, K46Y: -0.051 ± 0.07; F28C: -0.882 ± 0.28; F28T: -0.909 ± 0.18.
In the case of F28R, the abundance fitness was -0.823 ± 0.091.
Next, Q61L: -0.439 ± 0.053; Q61D: -0.751 ± 0.22.
As to L66S, the abundance fitness turned out to be 0.03 ± 0.039.
L66G: the abundance fitness was -0.419 ± 0.051.
G23M: the abundance fitness is 0.009 ± 0.056.
Take G23L: the abundance fitness is -0.061 ± 0.04.
On to G23I, for which the abundance fitness was -0.244 ± 0.098.
Next, R29A: 0.191 ± 0.033; R29Y: -0.089 ± 0.086; R29Q: 0.168 ± 0.045.
Regarding R29E, the abundance fitness came to 0.258 ± 0.043.
R29W: the abundance fitness was determined as 0.164 ± 0.045.
Next, N51W: -0.408 ± 0.071; N51G: -0.129 ± 0.033; N51Y: -0.363 ± 0.15.
As for N51D, the abundance fitness amounted to 0.086 ± 0.053.
For N51L, the abundance fitness was -0.133 ± 0.054.
On to A65F, for which the abundance fitness is -0.19 ± 0.073.
As to A65I, the abundance fitness was -0.162 ± 0.11.
Turning to A65S, the abundance fitness was -0.011 ± 0.037.
Turning to A65R, the abundance fitness was -0.086 ± 0.032.
As for A65V, the abundance fitness was -0.075 ± 0.043.
Next, L36H: -0.151 ± 0.086; L36Y: -0.047 ± 0.084.
Next, L36S: -0.235 ± 0.052; L36T: -0.139 ± 0.053.
In the case of L36A, the abundance fitness is -0.135 ± 0.042.
Next, L36F: -0.162 ± 0.091; L36D: -0.461 ± 0.14.
For L36P, the abundance fitness is -0.374 ± 0.067.
Take H19F: the abundance fitness worked out at 0.247 ± 0.095.
On to H19R, for which the abundance fitness was -0.049 ± 0.032.
In the case of H19I, the abundance fitness turned out to be 0.009 ± 0.073.
On to H19N, for which the abundance fitness was 0.063 ± 0.065.
As for C21P, the abundance fitness was -1.14 ± 0.26.
For C21L, the abundance fitness was -0.942 ± 0.11.
As for C21R, the abundance fitness is -0.865 ± 0.09.
Regarding C21S, the abundance fitness was -0.867 ± 0.094.
Regarding C21K, the abundance fitness is -0.597 ± 0.12.
Consider E39V, for which the abundance fitness is -0.061 ± 0.034.
On to E39P, for which the abundance fitness is 0.072 ± 0.04.
Take E39L: the abundance fitness was -0.229 ± 0.041.
For the variant E39M, the abundance fitness was -0.167 ± 0.057.
On to E39S, for which the abundance fitness is -0.094 ± 0.037.
Next, I47Y: -0.419 ± 0.11; I47V: 0.004 ± 0.027; I47K: -0.453 ± 0.061.
For the variant I47R, the abundance fitness is -0.502 ± 0.034.
Consider I47T, for which the abundance fitness was -0.253 ± 0.048.
Take F27W: the abundance fitness is -0.787 ± 0.094.
With F27C, the abundance fitness is -0.719 ± 0.16.
Regarding F27I, the abundance fitness was -0.994 ± 0.23.
Take F27R: the abundance fitness is -0.684 ± 0.065.
Turning to H70V, the abundance fitness stood at 0.099 ± 0.065.
Consider H70Y, for which the abundance fitness is -0.162 ± 0.14.
With H70P, the abundance fitness is 0.185 ± 0.12.
Next, H70Q: 0.108 ± 0.095; H70G: 0.048 ± 0.055.
With H70A, the abundance fitness came to 0.02 ± 0.084.
On to A72Q, for which the abundance fitness was 0.008 ± 0.058.
A72R: the abundance fitness is -0.257 ± 0.043.
Turning to A72E, the abundance fitness was 0.122 ± 0.042.
On to G8F, for which the abundance fitness was -0.779 ± 0.23.
On to G8S, for which the abundance fitness is -0.362 ± 0.045.
Take G8Y: the abundance fitness is -0.438 ± 0.15.
G8T: the abundance fitness was -0.447 ± 0.068.
In the case of G8M, the abundance fitness was -0.782 ± 0.12.
As to C41Y, the abundance fitness is -0.816 ± 0.34.
In the case of C41R it was -0.694 ± 0.099; in that of C41P, -0.093 ± 0.16; in that of C41S, -0.945 ± 0.23.
On to E37K, for which the abundance fitness was -0.038 ± 0.051.
Take E37A: the abundance fitness was -0.13 ± 0.044.
Consider E37D, for which the abundance fitness is -0.034 ± 0.059.
As to E37F, the abundance fitness is -0.227 ± 0.092.
Next, E37T: -0.121 ± 0.048.
On to E37W, for which the abundance fitness is -0.311 ± 0.056.
In the case of E37P it was -0.559 ± 0.086.
With S12V, the abundance fitness is -0.222 ± 0.045.
Take S12W: the abundance fitness is -0.579 ± 0.079.
Turning to S12L, the abundance fitness is -0.395 ± 0.059.
Regarding S12R, the abundance fitness is -0.351 ± 0.046.
S12P: the abundance fitness is -0.39 ± 0.07.
For the variant C45G, the abundance fitness is -0.787 ± 0.054.
C45P: the abundance fitness is -0.876 ± 0.18.
Next, C45I: -0.842 ± 0.23; C45Y: -0.374 ± 0.11.
In the case of C45E, the abundance fitness is -0.838 ± 0.1.
On to C45N, for which the abundance fitness is -0.835 ± 0.22.
Next, T31K: -0.917 ± 0.22.
Turning to T31Q, the abundance fitness is -0.792 ± 0.15.
In the case of T31E it was -0.89 ± 0.17.
Take T31A: the abundance fitness is -0.288 ± 0.051.
For T31Y, the abundance fitness is -0.46 ± 0.17.
For A20S, the abundance fitness is -0.168 ± 0.05.
For the variant A20T, the abundance fitness was -0.057 ± 0.05.
Consider A20M, for which the abundance fitness was -0.456 ± 0.13.
